Experimental data from PMC10813304.

Assays:
[1] = target: C133Q ΔLTRIN (Aedes aegypti); experiment: dynamic and static light scattering; DynaPro Nanostar; ΔLTRIN at 1 mg/mL to 20 mg/mL; also with Ca2+ or EGTA without effect
[2] = target: C133Q ΔLTRIN (Aedes aegypti); experiment: SEC; Superdex 75 after Ni-NTA and ion exchange; elution against a standard curve (between 44 kDa and 17 kDa); also with Ca2+ or EGTA/EDTA without effect
[3] = target: ΔLTRIN, truncated C-terminal LTRIN (lymphotoxin β receptor inhibitor), residues 86-210 (Aedes aegypti); experiment: AUC; sedimentation velocity, 0.5 mg/mL, 25 mM Tris HCl, 50 mM NaCl pH 7.5, 40,000 rpm, 20 °C, continuous c(s) distribution
[4] = target: ΔLTRIN, truncated C-terminal LTRIN (lymphotoxin β receptor inhibitor), residues 86-210 (Aedes aegypti); experiment: dynamic and static light scattering; DynaPro Nanostar; ΔLTRIN at 1 mg/mL to 20 mg/mL; also with Ca2+ or EGTA without effect
[5] = target: ΔLTRIN, truncated C-terminal LTRIN (lymphotoxin β receptor inhibitor), residues 86-210 (Aedes aegypti); experiment: SEC; Superdex 75 after Ni-NTA and ion exchange; elution against a standard curve (between 44 kDa and 17 kDa); also with Ca2+ or EGTA/EDTA without effect

Row | stoichiometry N [1] | stoichiometry N [2] | Substance | stoichiometry N [3] | stoichiometry N [4] | stoichiometry N [5]
1 | 2 | 2 | C133Q ΔLTRIN (domain or fragment) |  |  | 
2 |  |  | ΔLTRIN, truncated C-terminal LTRIN (lymphotoxin β receptor inhibitor), residues 86-210 (domain or fragment) | 2 | 2 | 2
